The values below come from PMC4278767.

Series [1] has as its system T1, Fis (Pseudomonas putida (strain PaW85?)), ORF:eb421da7.
T1 sequence: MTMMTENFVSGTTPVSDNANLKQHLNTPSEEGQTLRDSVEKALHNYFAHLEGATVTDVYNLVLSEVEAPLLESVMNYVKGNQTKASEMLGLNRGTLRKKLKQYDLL
Description: DNase I footprinting. The note with it: EMSA: 24 mM Tris/HCl pH 7.5, 50 mM KCl, 10 mM MgCl2, 1 mM CaCl2, 0.1 mM EDTA, 5% glycerol, 0.05 ug/ul BSA, 0.05 ug/ul salmon sperm DNA, 20 ul, 20 min room ….

The test system is the same in series [2]. Description: EMSA. The note with it: EMSA: 24 mM Tris/HCl pH 7.5, 50 mM KCl, 10 mM MgCl2, 1 mM CaCl2, 0.1 mM EDTA, 5% glycerol, 0.05 ug/ul BSA, 0.05 ug/ul salmon sperm DNA, 20 ul, 20 min room ….

For “CGTAACAGAGCCCTTTCAGGGGTCTTACGCACAGCCTCGACCAGGCAGTCGACAAACGGGTGGTTAGGGAGATATAGCAGCCGGTGGGGAAGCAACCAGATGGCTTTCTGGGTTAATCCTTTGGTAGAAAAGCCTCAGCGAAAGATCTA (double strand) [lapF promoter fragment with Fis-F2 (wild type)]”, the binding entry in series [1] and in series [2] was “binds” in each case.
